Values of other authors, collected in PMC9428257.
pKd: −log10 of the molar value. Where “and” joins values, the source holds several entries; their conditions need not be identical. Equal entries are not always repeated. Where two headings read alike, the source gives them in different places.

How the values were obtained:
APRIL (Homo sapiens) [1] = target: APRIL (Homo sapiens) (UniProt O75888)
BAFF (Homo sapiens) = BAFF (Homo sapiens) (UniProt Q9Y275)
APRIL (Homo sapiens) [2] = target: APRIL (Homo sapiens) (UniProt O75888); remark: listed apart in the source

Sequence of APRIL (Homo sapiens) (O75888 105-250): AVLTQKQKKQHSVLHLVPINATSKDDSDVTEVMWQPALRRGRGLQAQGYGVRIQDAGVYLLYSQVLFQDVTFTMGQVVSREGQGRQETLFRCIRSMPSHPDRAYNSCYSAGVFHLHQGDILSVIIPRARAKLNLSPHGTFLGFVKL
Sequence of sBCMA ECD (Q02223 78-184): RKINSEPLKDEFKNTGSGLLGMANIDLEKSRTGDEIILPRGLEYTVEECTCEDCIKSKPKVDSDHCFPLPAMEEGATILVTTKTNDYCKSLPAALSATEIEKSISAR
Sequence of sTACI-Fc ECD (O14836 1-165): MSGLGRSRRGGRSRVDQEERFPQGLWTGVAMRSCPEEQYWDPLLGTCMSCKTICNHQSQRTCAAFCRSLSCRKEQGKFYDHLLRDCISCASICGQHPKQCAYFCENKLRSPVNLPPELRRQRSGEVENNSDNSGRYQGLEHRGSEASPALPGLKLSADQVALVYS

Row | pKd (APRIL (Homo sapiens) [1]) | pKd (BAFF (Homo sapiens)) | pKd (APRIL (Homo sapiens) [2]) | Substance
1 | 10.60 and 10.32 |  |  | sBCMA ECD (from UniProt Q02223)
2 |  | 9.80 | 8.19 | sTACI-Fc ECD (from UniProt O14836)
